Literature values as cited in article PMC9066409.
Like-named read-outs stand apart in the source and are kept apart here.

Tests used:
FGFR1 (Homo sapiens) [1] = biological target: FGFR1 (Homo sapiens) (UniProt P11362)
FGFR1 (Homo sapiens) [2] = biological target: FGFR1 (Homo sapiens) (UniProt P11362); remark: listed apart in the source

Sequence of UniProt P11362 (P11362 22-822): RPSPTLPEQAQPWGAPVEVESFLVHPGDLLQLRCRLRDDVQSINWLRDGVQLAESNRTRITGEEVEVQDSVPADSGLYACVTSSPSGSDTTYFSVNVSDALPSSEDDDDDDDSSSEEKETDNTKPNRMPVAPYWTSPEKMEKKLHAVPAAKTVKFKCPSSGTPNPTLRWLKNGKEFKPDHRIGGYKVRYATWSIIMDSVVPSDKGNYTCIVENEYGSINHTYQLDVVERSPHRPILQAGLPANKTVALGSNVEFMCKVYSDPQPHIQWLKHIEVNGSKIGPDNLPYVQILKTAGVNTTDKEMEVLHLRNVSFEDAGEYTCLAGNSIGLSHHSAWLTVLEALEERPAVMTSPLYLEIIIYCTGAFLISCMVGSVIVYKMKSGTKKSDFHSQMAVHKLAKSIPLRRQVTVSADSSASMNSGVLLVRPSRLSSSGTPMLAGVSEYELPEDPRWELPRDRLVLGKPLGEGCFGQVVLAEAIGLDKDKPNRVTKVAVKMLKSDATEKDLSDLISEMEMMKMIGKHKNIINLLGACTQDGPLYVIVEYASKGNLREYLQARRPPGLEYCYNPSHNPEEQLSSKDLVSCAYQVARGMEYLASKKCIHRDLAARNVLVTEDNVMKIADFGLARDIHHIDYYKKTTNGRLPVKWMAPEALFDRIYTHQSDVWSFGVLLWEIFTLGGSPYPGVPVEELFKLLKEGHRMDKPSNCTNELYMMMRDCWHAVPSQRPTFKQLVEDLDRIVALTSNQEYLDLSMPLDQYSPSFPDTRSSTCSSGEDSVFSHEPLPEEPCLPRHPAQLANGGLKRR

Substance | Kd (FGFR1 (Homo sapiens) [1]) [nM] | Kd (FGFR1 (Homo sapiens) [2]) [nM]
FGF1 (from UniProt P05230) | 136 | 
FGF2 (from UniProt P09038) |  | 62
